Molecular target: dipeptidyl peptidase 4 (DPP4), cellular receptor on Huh-7 cells (human) (UniProt P27487)
Assay: cell-based or functional assay

Chain of UniProt P27487 (P27487 whole entry): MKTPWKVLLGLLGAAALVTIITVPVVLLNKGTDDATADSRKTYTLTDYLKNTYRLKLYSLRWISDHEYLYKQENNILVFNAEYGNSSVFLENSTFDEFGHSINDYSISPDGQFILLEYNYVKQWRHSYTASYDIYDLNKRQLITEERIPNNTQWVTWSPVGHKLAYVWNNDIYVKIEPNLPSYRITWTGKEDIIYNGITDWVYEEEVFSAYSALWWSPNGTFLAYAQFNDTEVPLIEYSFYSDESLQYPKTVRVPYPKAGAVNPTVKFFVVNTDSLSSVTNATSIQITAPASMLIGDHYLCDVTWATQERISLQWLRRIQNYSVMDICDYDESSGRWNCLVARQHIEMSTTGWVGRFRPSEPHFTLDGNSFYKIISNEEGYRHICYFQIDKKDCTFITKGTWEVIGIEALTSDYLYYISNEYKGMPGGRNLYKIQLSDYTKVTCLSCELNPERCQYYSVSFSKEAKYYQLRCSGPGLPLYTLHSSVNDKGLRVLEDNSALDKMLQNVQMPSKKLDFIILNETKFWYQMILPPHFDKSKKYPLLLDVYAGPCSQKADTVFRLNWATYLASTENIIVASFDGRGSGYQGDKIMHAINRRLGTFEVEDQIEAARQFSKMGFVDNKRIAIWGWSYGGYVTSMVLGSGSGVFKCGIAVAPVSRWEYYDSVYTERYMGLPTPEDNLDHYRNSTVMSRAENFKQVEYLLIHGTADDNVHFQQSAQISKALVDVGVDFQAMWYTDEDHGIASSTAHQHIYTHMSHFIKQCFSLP

S377-588-Fc (residues 377-588 of MERS-CoV S protein fused to Fc of human IgG) (Fc fusion)
inhibition of CPE formation caused by MERS-CoV infection in Calu-3 cells: 3 µg/mL
